Laboratory results reported in US20150258192A1, “COMPOSITIONS AND METHODS FOR PREVENTING OR TREATING CHRONIC LUNG ALLOGRAFT DYSFUNCTION (CLAD) AND IDIOPATHIC PULMONARY FIBROSIS (IPF)” (priority 2014, published 2015).
No end group written: not given here.

Experiments:
Experiment in all cases: Kinase Profiling Assay
Type in all cases: biochemical
Conditions in all cases: peptide 100 μM
JNK3(h) = target: T1, JNK3(h) (Homo sapiens, UniProt P53779)
T1 construct: purchased Millipore
In short: (§1)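 Activity remaining relative to an uninhibited control was determined by scintillation counting of labeled substrate bound to a negatively charged filter. Radiolabeled phosphate came from ATP; the substrate carried positive charge. Duplicate measurements, within a 266-kinase human panel.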

DRAK1(h) = target: T2, DRAK1(h) (Homo sapiens, UniProt Q9UEE5)
T2 sequence (Q9UEE5 1-414): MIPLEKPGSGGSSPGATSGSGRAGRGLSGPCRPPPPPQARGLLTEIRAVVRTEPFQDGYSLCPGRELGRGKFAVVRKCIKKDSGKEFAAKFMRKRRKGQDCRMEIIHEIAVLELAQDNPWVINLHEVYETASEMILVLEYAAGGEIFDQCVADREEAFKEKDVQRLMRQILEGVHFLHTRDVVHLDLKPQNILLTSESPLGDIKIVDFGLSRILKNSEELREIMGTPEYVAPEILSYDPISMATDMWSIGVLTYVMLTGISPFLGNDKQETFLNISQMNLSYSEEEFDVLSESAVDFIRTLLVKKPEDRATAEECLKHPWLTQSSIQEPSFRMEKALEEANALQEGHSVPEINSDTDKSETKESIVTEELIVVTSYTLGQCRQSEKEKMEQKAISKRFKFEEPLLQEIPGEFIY
In short: as §1

Syk(h) = target: T3, Syk(h) (Homo sapiens, UniProt P43405)
T3 construct: purchased Millipore
In short: as §1

CDK1/cyclinB(h) = CDK1/cyclinB(h) (Homo sapiens, UniProt P06493)
CDK1/cyclinB(h), sequence (P06493 whole entry): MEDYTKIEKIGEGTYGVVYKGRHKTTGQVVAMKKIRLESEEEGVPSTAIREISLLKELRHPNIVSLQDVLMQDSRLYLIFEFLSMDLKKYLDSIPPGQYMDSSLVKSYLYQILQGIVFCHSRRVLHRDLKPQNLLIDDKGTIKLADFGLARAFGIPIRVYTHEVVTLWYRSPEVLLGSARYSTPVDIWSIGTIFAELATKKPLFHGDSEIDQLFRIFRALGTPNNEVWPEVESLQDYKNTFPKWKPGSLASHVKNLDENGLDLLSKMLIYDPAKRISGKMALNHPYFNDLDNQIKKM
CDK1/cyclinB(h), sequence (P14635 whole entry partner): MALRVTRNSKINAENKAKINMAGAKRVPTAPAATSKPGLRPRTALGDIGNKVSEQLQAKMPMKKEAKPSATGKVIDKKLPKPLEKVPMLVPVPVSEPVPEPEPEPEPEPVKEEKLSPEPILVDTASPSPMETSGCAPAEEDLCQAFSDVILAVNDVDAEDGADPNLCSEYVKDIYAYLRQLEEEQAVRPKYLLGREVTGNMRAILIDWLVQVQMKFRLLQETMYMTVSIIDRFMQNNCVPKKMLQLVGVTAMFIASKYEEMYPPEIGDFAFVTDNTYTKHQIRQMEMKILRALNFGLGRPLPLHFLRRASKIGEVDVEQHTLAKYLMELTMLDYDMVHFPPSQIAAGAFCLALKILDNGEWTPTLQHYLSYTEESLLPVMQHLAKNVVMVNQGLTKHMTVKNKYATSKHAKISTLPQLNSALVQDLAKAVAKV
In short: as §1

CaMKIIβ(h) = CaMKIIβ(h) (Homo sapiens, UniProt Q13554)
CaMKIIβ(h), sequence (Q13554 whole entry): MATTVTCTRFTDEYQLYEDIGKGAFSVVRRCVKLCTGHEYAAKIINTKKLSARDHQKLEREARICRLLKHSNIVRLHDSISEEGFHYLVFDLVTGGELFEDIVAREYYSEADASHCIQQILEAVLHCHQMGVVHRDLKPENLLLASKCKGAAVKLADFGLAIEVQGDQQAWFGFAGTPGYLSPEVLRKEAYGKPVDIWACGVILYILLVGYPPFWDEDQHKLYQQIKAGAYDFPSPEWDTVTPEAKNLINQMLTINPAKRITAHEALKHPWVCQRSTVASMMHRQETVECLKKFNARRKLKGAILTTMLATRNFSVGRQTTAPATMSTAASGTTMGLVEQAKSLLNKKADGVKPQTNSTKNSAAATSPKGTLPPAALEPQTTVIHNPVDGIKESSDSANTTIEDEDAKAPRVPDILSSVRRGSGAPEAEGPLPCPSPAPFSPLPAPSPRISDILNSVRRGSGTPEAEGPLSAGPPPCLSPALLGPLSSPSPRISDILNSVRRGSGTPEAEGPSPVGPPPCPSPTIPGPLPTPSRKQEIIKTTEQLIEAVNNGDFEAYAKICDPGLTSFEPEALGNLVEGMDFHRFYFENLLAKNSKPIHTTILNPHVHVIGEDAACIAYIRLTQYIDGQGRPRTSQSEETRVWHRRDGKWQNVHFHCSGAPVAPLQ
In short: as §1

Lck(h) activated = target: T4, Lck(h) activated (Homo sapiens, UniProt P06239)
T4 construct: purchased Millipore
T4 sequence (P06239 whole entry): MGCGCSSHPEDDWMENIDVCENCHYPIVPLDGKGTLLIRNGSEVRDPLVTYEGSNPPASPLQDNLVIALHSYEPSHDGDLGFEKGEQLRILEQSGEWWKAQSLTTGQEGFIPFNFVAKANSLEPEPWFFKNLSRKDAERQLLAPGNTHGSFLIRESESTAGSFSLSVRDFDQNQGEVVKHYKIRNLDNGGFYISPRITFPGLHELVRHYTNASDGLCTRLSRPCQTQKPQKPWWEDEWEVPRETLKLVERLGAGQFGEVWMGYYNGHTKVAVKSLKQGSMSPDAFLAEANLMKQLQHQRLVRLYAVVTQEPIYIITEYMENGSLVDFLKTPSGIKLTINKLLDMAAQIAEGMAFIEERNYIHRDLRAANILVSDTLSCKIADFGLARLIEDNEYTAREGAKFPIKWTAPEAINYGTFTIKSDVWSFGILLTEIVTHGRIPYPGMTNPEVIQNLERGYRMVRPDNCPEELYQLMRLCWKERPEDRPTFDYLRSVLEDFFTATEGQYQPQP
In short: as §1

Pim-1(h) = Pim-1(h) (Homo sapiens, UniProt P11309)
Pim-1(h), sequence (P11309 whole entry): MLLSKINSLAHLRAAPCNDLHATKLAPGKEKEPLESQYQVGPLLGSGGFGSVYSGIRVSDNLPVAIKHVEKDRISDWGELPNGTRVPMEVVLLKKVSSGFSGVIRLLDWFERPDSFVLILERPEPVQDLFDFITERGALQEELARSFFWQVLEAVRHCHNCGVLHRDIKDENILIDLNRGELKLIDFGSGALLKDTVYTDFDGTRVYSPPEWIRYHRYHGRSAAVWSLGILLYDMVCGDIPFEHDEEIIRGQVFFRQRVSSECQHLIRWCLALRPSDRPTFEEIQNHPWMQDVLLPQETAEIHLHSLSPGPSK
In short: as §1

PhKγ2(h) = target: T5, PhKγ2(h) (Homo sapiens, UniProt P15735)
T5 sequence (P15735 1-406): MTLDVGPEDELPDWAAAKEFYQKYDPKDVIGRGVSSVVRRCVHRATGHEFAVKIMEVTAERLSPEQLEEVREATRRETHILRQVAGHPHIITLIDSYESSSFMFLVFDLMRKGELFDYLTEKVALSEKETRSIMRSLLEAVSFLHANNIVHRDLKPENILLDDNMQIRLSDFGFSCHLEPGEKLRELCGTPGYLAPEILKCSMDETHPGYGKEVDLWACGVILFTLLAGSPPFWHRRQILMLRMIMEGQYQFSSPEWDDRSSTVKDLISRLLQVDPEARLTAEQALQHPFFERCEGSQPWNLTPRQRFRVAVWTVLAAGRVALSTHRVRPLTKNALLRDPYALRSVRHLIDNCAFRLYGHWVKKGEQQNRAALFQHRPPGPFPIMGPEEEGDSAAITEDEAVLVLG
In short: as §1

ASK1(h) = target: T6, ASK1(h) (Homo sapiens, UniProt Q99683)
T6 sequence (Q99683 1-1374): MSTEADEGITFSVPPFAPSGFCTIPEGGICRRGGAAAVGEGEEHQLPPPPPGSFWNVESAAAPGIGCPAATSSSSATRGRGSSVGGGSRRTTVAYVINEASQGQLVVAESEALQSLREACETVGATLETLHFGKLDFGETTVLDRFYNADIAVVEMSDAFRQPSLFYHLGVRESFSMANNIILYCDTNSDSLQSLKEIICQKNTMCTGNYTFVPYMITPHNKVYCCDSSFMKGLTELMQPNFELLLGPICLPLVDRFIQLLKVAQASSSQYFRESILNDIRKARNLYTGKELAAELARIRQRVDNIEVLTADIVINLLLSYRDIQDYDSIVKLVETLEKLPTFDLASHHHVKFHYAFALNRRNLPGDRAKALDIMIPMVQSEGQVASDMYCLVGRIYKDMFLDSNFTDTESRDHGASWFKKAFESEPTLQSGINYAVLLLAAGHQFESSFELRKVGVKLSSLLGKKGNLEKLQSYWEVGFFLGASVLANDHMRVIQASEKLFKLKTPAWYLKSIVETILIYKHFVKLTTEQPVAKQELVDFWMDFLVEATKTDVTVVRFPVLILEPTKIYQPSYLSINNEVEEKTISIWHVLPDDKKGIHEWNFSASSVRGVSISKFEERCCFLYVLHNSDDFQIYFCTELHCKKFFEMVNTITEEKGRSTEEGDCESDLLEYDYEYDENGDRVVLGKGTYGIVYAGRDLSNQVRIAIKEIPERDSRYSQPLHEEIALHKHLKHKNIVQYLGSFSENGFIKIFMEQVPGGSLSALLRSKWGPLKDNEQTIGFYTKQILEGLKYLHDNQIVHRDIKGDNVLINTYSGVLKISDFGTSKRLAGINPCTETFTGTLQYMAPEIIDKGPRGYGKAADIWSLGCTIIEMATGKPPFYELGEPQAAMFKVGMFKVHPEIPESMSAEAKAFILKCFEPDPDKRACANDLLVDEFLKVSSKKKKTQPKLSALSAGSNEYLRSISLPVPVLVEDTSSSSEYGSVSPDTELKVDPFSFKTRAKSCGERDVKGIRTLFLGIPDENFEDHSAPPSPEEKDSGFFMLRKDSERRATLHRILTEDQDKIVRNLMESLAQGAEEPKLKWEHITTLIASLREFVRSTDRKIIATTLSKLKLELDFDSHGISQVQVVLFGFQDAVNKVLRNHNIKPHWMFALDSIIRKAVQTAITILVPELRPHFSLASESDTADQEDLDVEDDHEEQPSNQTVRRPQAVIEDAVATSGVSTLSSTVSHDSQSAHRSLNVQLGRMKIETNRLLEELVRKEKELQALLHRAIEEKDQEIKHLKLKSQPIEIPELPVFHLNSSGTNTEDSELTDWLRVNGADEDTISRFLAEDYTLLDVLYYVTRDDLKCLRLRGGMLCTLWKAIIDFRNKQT
In short: as §1

T1 sequence (P53779 whole entry): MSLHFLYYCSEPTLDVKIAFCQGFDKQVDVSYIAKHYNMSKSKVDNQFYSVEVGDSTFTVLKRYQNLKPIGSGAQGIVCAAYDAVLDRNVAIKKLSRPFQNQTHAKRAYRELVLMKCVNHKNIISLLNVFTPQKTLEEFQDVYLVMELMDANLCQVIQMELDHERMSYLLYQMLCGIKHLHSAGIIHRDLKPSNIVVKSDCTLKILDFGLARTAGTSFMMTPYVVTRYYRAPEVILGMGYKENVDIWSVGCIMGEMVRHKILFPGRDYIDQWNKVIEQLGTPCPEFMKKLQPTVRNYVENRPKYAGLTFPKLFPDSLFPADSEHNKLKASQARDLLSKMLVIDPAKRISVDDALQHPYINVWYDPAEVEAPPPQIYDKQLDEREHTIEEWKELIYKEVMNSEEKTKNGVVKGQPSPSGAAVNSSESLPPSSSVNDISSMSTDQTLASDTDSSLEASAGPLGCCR

Row | Sequence | % activity (JNK3(h)) [%] | % activity (DRAK1(h)) [%] | % activity (Syk(h)) [%] | % activity (CDK1/cyclinB(h)) [%] | % activity (CaMKIIβ(h)) [%] | % activity (Lck(h) activated) [%] | % activity (Pim-1(h)) [%] | % activity (PhKγ2(h)) [%] | % activity (ASK1(h)) [%]
1 | FAKLAARLYRKALARQLGVAA [MMI-0300] | 89 | 14 | 24 | 73 | 2 | 243 | 8 | 46 | 80
2 | HRRIKAWLKKIKALARQLGVAA (Mammal) [MMI-0500] | 171 | 8 | 5 | 57 | 3 | 76 | 0 | 16 | -4
3 | KAFAKLAARLYRKALARQLGVAA [MMI-0400] | 70 | 14 | 9 | 74 | 11 | 216 | 7 | 38 | 69
4 | YARAAARQARAKALARQLGVAA [MMI-0100] | – | 47 | – | – | – | – | – | – | –
5 | YARAAARQARAKALNRQLGVA (Mammal) [MMI-0200] | 90 | 34 | 36 | – | 53 | 90 | 18 | 86 | 101
